For this experiment, the target named is HA-PP2cA, expressed in HEK 293 cells (UniProt P67775 1-309). The experiment is described as follows: co-IP.
Sequence of HA-PP2cA, expressed in HEK 293 cells (P67775 whole entry): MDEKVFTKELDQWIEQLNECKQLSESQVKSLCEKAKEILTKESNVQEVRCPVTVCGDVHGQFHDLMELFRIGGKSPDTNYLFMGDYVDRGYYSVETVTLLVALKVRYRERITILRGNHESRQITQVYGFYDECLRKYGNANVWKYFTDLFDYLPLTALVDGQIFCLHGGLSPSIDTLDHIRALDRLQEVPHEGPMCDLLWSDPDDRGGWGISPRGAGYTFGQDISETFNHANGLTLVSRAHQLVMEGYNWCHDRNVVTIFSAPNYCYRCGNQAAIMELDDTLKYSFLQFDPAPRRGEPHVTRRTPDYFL

B1: FLAG-KAP1 (wild type), expressed in HEK 293 cells (natural protein, human, UniProt Q13263 1-835, looked up)
chain: MAASAAAASAAAASAASGSPGPGEGSAGGEKRSTAPSAAASASASAAASSPAGGGAEALELLEHCGVCRERLRPEREPRLLPCLHSACSACLGPAAPAAANSSGDGGAAGDGTVVDCPVCKQQCFSKDIVENYFMRDSGSKAATDAQDANQCCTSCEDNAPATSYCVECSEPLCETCVEAHQRVKYTKDHTVRSTGPAKSRDGERTVYCNVHKHEPLVLFCESCDTLTCRDCQLNAHKDHQYQFLEDAVRNQRKLLASLVKRLGDKHATLQKSTKEVRSSIRQVSDVQKRVQVDVKMAILQIMKELNKRGRVLVNDAQKVTEGQQERLERQHWTMTKIQKHQEHILRFASWALESDNNTALLLSKKLIYFQLHRALKMIVDPVEPHGEMKFQWDLNAWTKSAEAFGKIVAERPGTNSTGPAPMAPPRAPGPLSKQGSGSSQPMEVQEGYGFGSGDDPYSSAEPHVSGVKRSRSGEGEVSGLMRKVPRVSLERLDLDLTADSQPPVFKVFPGSTTEDYNLIVIERGAAAAATGQPGTAPAGTPGAPPLAGMAIVKEEETEAAIGAPPTATEGPETKPVLMALAEGPGAEGPRLASPSGSTSSGLEVVAPEGTSAPGGGPGTLDDSATICRVCQKPGDLVMCNQCEFCFHLDCHLPALQDVPGEEWSCSLCHVLPDLKEEDGSLSLDGADSTGVVAKLSPANQRKCERVLLALFCHEPCRPLHQLATDSTFSLDQPGGTLDLTLIRARLQEKLSPPYSSPQEFAQDVGRMFKQFNKLTEDKADVQSIIGLQRFFETRMNEAFGDTKFSAVLVEPPPMSLPGAGLSSQELSGGPGDGP
With B1, the “extent of interaction relative to that with PP1α, after doxorubicin” value is approximately 53%.

Values taken from article PMC3302164 (Science Signaling, 2010).
